Measurements: PMC10338489, “Structural and photophysical characterization of the small ultra-red fluorescent protein” (Nature Communications, 2023)
Several values for one entry are separate records, joined by “and”; a condition that tells them apart may be missing. Identical values can stand only once.

Legend:
smURFP H61R = experiment: native gel or EMSA; NativePAGE 4-16% Bis-Tris gel, 0.27 μg purified protein per lane, without and with 100 mM DTT; Coomassie stain and far-red fluorescence; homodimeric smURFP used as a size reference
[1] = target: the molecule itself; experiment: cell-based or functional assay
[2] = target: the molecule itself; experiment: crystal structure; apo-smURFP crystallised from smURFP with 20% BV attached; hanging drop, 20 °C, 4 M Na nitrate + 0.1 M NaOAc (pH 4.6); 2.8 Å, space group C222(1), six protomers (three homodimers) in the asymmetric unit

CytERM-mGFP gave an OSER assay in HEK293A cells expressing CytERM-mGFP: ratio of the MFI of the OSER structure to the MFI of the nuclear envelope, after 24 and 48 h (CytERM-mGFP) of under 2.3.

For smURFP H61R, the stoichiometry N (smURFP H61R) was 2 and > 2.

B1: small Ultra-Red Fluorescent Protein (smURFP) (other)
chain: MKTSEQRVNIATLLTENKKKIVDKASQDLWRRHPDLIAPGGIAFSQRDRALCLRDYGWFLHLITFCLLAGDKGPIESIGLISIREMYNSLGVPVPAMMESIRCLKEASLSLLDEEDANETAPYFDYIIKAMS
modifications: biliverdin (BV) covalently attached to C52 in part of the protein (20% BV with high expression); the crystal holds apo-smURFP
With B1 the “OSER assay in HEK293A cells expressing CytERM-smURFP: ratio of the MFI of the OSER structure to the MFI of the nuclear envelope, after 24 h (4.8) and 48 h (3.7)” value [1] was 4.8 and the “stoichiometry N” value [2] was 2.
